Blank lines part the entries; values can stand above or below the binder they belong to. Bridge positions count the residues as written; N and C are the ends. Square brackets hold non-standard residues; d marks the D form. Ends that are not written are not given here. I, II: the chains in the order shown. 1Nal = N[C@@H](Cc1cccc2ccccc12)C(=O)O; PEG = not defined here
Columns and labels:
[1] = target: T1, human erythropoietin receptor on Ba/F3-huEPOR cells (human, UniProt P19235 25-508); experiment: cell-based or functional assay
T1 sequence (looked up): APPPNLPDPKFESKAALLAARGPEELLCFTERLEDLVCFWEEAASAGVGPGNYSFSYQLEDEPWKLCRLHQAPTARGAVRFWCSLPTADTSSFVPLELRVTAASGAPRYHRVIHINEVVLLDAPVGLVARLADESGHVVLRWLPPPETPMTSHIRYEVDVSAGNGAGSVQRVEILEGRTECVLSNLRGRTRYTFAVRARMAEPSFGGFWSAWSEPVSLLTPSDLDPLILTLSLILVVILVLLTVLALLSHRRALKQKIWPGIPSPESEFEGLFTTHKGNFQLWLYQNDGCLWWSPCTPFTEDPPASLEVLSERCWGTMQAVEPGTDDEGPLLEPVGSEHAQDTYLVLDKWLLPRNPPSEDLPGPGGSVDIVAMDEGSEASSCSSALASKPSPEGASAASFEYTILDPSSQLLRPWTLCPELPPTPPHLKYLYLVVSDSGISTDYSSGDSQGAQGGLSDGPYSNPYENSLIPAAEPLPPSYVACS

[2] = target: T1, human erythropoietin receptor on …; experiment: cell-based or functional assay; remark: listed apart in the source

EC50, bioassay (Ba/F3-huEPOR cell proliferation) [2]: 200 nM
Binder: GGTYSCHFGPLT[1Nal]VCRPQGG (cysteine pairing not given here) [monomeric compound having the sequence GGTYSCHFGPLTBVCRPQGG (SEQ ID NO: 7)]

EC50 (nM), bioassay (Ba/F3-huEPOR cell proliferation) [1]: 0.4 nM
B4: Peptide dimer of Example 11, Code No. 17762 (R1 = R2 = GGTYSCHFGPLTBVCRPQGG, both N-termini PEGylated, n1 = 1, n2 = 1, lysine linker) (peptide)
peptide: {PEG}-GGTYSCHFGPLT[1Nal]VCRPQGG
modifications: not fully specified (C-terminus); cysteine pairing not given here; reading uncertain; also: homodimer: C-termini joined via beta-alanine to a lysine linker, PEG size not given here

EC50 (nM), bioassay (Ba/F3-huEPOR cell proliferation) [1]: 0.3 nM
B7: Peptide dimer of Example 8, Code No. 19261 (R1 = R2 = GGTYSCHFGPLTBVCRPQGG, n1 = 1, n2 = 1, lysine linker, intramolecular disulfide in each chain) (peptide)
peptide: GGTYSCHFGPLT[1Nal]VCRPQGG
modifications: disulfide 6-15; not fully specified (C-terminus); also: dimer: each chain joined through βAla to lysine linker

EC50 (nM), bioassay (Ba/F3-huEPOR cell proliferation) [1]: 5 nM
B9: Peptide dimer of Example 10, Code No. 17644 (R1 = R2 = GGTYSCHFGPLTBVCRPQGG, both N-termini acetylated, n1 = 1, n2 = 0, lysine linker) (peptide)
peptide 1: Ac-GGTYSCHFGPLT[1Nal]VCRPQGG
peptide 2: Ac-GGTYSCHFGPLT[1Nal]VCRPQGG
modifications: cysteine pairing not given here; also: dimer: C-termini joined through lysine linker, one chain (R1) via a beta-alanine, the other (R2) directly

EC50 (nM), bioassay (Ba/F3-huEPOR cell proliferation) [1]: 2 nM
Binder: Ac-GGTYSCHFGPLT[1Nal]VCRPQGGK (not fully specified; also: cysteine state not given here)

More lines, now with the values behind:

B1: Peptide dimer of Example 4, Code No. 20532 (R1 = R2 = GGTYSCHFGPLTBVCRPQ, n1 = 0, n2 = 0, lysine linker, free cysteine thiols) (peptide)
peptide: GGTYSCHFGPLT[1Nal]VCRPQ
modifications: cysteine pairing not given here; also: homodimer: C-termini joined through a lysine linker
EC50 (nM), bioassay (Ba/F3-huEPOR cell proliferation) [1]: 50 nM

B2: Peptide dimer of Example 1, Code No. 17218 (R1 = R2 = GGTYSCHFGPLTBVCRPQGG, n1 = 0, n2 = 0, lysine linker, free cysteine thiols) (peptide)
peptide: GGTYSCHFGPLT[1Nal]VCRPQGG
modifications: cysteine pairing not given here; also: dimer: two identical chains joined at C-termini through a lysine amide linker
EC50 (nM), bioassay (Ba/F3-huEPOR cell proliferation) [1]: 6 nM

B3: Peptide dimer of Example 6, Code No. 19957 (R1 = R2 = GGTYSCHFGPLTBVCRPQGG, n1 = 0, n2 = 0, lysine linker, intramolecular disulfide in each chain) (peptide)
peptide: GGTYSCHFGPLT[1Nal]VCRPQGG
modifications: disulfide 6-15; also: dimer: C-termini of both chains bound to lysine (amide) linker
EC50 (nM), bioassay (Ba/F3-huEPOR cell proliferation) [1]: 0.5 nM

B5: Peptide dimer of Example 2, Code No. 20528 (R1 = R2 = GGTYSCHFGPLTBVCRPQGG, n1 = 1, n2 = 0, lysine linker, free cysteine thiols) (peptide)
peptide 1: GGTYSCHFGPLT[1Nal]VCRPQGG
peptide 2: GGTYSCHFGPLT[1Nal]VCRPQGG
modifications: cysteine pairing not given here; also: dimer: C-termini joined through lysine linker, one chain (R1) via a beta-alanine, the other (R2) directly
EC50 (nM), bioassay (Ba/F3-huEPOR cell proliferation) [1]: 6 nM

B6: Peptide dimer of Example 3, Code No. 20526 (R1 = R2 = GGTYSCHFGPLTBVCRPQGG, n1 = 1, n2 = 1, lysine linker, free cysteine thiols) (peptide)
peptide: GGTYSCHFGPLT[1Nal]VCRPQGG
modifications: not fully specified (C-terminus); cysteine pairing not given here; also: homodimer: C-termini joined via beta-alanine to a lysine linker
EC50 (nM), bioassay (Ba/F3-huEPOR cell proliferation) [1]: 5 nM

B8: Peptide dimer of Example 7, Code No. 17286 (R1 = R2 = GGTYSCHFGPLTBVCRPQGG, n1 = 1, n2 = 0, lysine linker, intramolecular disulfide in each chain) (peptide)
peptide 1: GGTYSCHFGPLT[1Nal]VCRPQGG
peptide 2: GGTYSCHFGPLT[1Nal]VCRPQGG
modifications: disulfide I:6-I:15, II:6-II:15; not fully specified (C-terminus); also: dimer: C-termini joined by lysine linker, R1 through βAla, R2 directly, which chain is R1 not given here
EC50 (nM), bioassay (Ba/F3-huEPOR cell proliferation) [1]: 0.4 nM

B10: Peptide dimer of Example 5, Code No. 20531 (R1 = R2 = GTYSCHFGPLTBVCRPQ, n1 = 0, n2 = 0, lysine linker, free cysteine thiols) (peptide)
peptide: GTYSCHFGPLT[1Nal]VCRPQ
modifications: cysteine pairing not given here; also: dimer: C-termini of both chains bound to lysine linker
EC50 (nM), bioassay (Ba/F3-huEPOR cell proliferation) [1]: 100 nM
